Experimental data: publication PMC6868009 (Nature Communications, 2019)

B1: TcdB2 (TcB) of the TcdB2-TccC3 cocoon (natural protein)
chain: MQNSQDFSITELSLPKGGGAITGMGEALTPTGPDGMAALSLPLPISAGRGYAPAFTLNYNSGAGNSPFGLGWDCNVMTIRRRTHFGVPHYDETDTFLGPEGEVLVVADQPRDESTLQGINLGATFTVTGYRSRLESHFSRLEYWQPKTTGKTDFWLIYSPDGQVHLLGKSPQARISNPSQTTQTAQWLLEASVSSRGEQIYYQYRAEDDTGCEADEITHHLQATAQRYLHIVYYGNRTASETLPGLDGSAPSQADWLFYLVFDYGERSNNLKTPPAFSTTGSWLCRQDRFSRYEYGFEIRTRRLCRQVLMYHHLQALDSKITEHNGPTLVSRLILNYDESAIASTLVFVRRVGHEQDGNVVTLPPLELAYQDFSPRHHAHWQPMDVLANFNAIQRWQLVDLKGEGLPGLLYQDKGAWWYRSAQRLGEIGSDAVTWEKMQPLSVIPSLQSNASLVDINGDGQLDWVITGPGLRGYHSQRPDGSWTRFTPLNALPVEYTHPRAQLADLMGAGLSDLVLIGPKSVRLYANTRDGFAKGKDVVQSGDITLPVPGADPRKLVAFSDVLGSGQAHLVEVSATKVTCWPNLGRGRFGQPITLPGFSQPATEFNPAQVYLADLDGSGPTDLIYVHTNRLDIFLNKSGNGFAEPVTLRFPEGLRFDHTCQLQMADVQGLGVASLILSVPHMSPHHWRCDLTNMKPWLLNEMNNNMGVHHTLRYRSSSQFWLDEKAAALTTGQTPVCYLPFPIHTLWQTETEDEISGNKLVTTLRYARGAWDGREREFRGFGYVEQTDSHQLAQGNAPERTPPALTKNWYATGLPVIDNALSTEYWRDDQAFAGFSPRFTTWQDNKDVPLTPEDDNSRYWFNRALKGQLLRSELYGLDDSTNKHVPYTVTEFRSQVRRLQHTDSRYPVLWSSVVESRNYHYERIASDPQCSQNITLSSDRFGQPLKQLSVQYPRRQQPAINLYPDTLPDKLLANSYDDQQRQLRLTYQQSSWHHLTNNTVRVLGLPDSTRSDIFTYGAENVPAGGLNLELLSDKNSLIADDKPREYLGQQKTAYTDGQNTTPLQTPTRQALIAFTETTVFNQSTLSAFNGSIPSDKLSTTLEQAGYQQTNYLFPRTGEDKVWVAHHGYTDYGTAAQFWRPQKQSNTQLTGKITLIWDANYCVVVQTRDAAGLTTSAKYDWRFLTPVQLTDINDNQHLITLDALGRPITLRFWGTENGKMTGYSSPEKASFSPPSDVNAAIELKKPLPVAQCQVYAPESWMPVLSQKTFNRLAEQDWQKLYNARIITEDGRICTLAYRRWVQSQKAIPQLISLLNNGPRLPPHSLTLTTDRYDHDPEQQIRQQVVFSDGFGRLLQAAARHEAGMARQRNEDGSLIINVQHTENRWAVTGRTEYDNKGQPIRTYQPYFLNDWRYVSNDSARQEKEAYADTHVYDPIGREIKVITAKGWFRRTLFTPWFTVNEDENDTAAEVKKVKM
B2: TccC3 (TcC) of the TcdB2-TccC3 cocoon, without the HVR (domain or fragment)
chain: MKNIDPKLYQKTPTVSVYDNRGLIIRNIDFHRTTANGDPDTRITRHQYDIHGHLNQSIDPRLYEAKQTNNTIKPNFLWQYDLTGNPLCTESIDAGRTVTLNDIEGRPLLTVTATGVIQTRQYETSSLPGRLLSVAEQTPEEKTSRITERLIWAGNTEAEKDHNLAGQCVRHYDTAGVTRLESLSLTGTVLSQSSQLLIDTQEANWTGDNETVWQNMLADDIYTTLSTFDATGALLTQTDAKGNIQRLAYDVAGQLNGSWLTLKGQTEQVIIKSLTYSAAGQKLREEHGNDVITEYSYEPETQRLIGIKTRRPSDTKVLQDLRYEYDPVGNVISIRNDAEATRFWHNQKVMPENTYTYDSLYQLISATGREMANIGQQSHQFPSPALPSDNNTYTNYTRTYTYDRGGNLTKIQHSSPATQNNYTTNITVSNRSNRAVLSTLTEDPAQVDALFDAGGHQNTLISGQNLNWNTRGELQQVTLVKRDKGANDDREWYRYSGDGRRMLKINEQQASNNAQTQRVTYLPNLELRLTQNSTATTEDLQVITVGEAGRAQVRVLHWESGKPEDIDNNQLRYSYDNLIGSSQLELDSEGQIISEEEYYPYGGTALWAARNQTEASYKTIRYSGKERDATGLYYYGYRYYQPWIGRWLSSDPAGTIDGLNLYRMVRNNPVTLLDPDGL

Experiments:
[1] = biological target: Photorhabdus luminescens TcdA1 (TcA) (Photorhabdus luminescens, UniProt Q9RN43 1-2516); experiment: cryo-EM structure; settings: both partners purified
[2] = biological target: B1; experiment: crystal structure; settings: both partners purified

Binder	binding result [1]	binding result [2]
B1	binds	–
B2	–	binds
